Publication PMC4755656, “Interaction Analysis of a Two-Component System Using Nanodiscs” (PLoS ONE, 2016)
One block for each binder: values may come before it.

Key:
Settings in all cases: both partners purified
[1] = biological target: T1, NT-647-labelled CpxA-Strep reconstituted in nanodiscs (CpxA-ND), as used for MST (E. coli, UniProt P0AE82 1-457, NT-647 dye (NHS NT-647 labeling kit; typically one primary amine per protein, position statistical)); experiment: MST; as a3, with the non-hydrolysable ATP analogue AMP-PNP and MgCl2
T1 construct: CpxA sits in a lipid bilayer ringed by two MSP1D1 molecules (1:1 molar ratio of MSP to CpxA); also called labeled CpxA-Strep in nanodiscs; CpxA-Strep nanodiscs; source: E. coli BL21(DE3) pLysS, from pI1CpxA, purified (Strep-Tactin Superflow); labelled, then reconstituted into nanodiscs; not shown: Strep, C-terminal, kept
T1 sequence (looked up): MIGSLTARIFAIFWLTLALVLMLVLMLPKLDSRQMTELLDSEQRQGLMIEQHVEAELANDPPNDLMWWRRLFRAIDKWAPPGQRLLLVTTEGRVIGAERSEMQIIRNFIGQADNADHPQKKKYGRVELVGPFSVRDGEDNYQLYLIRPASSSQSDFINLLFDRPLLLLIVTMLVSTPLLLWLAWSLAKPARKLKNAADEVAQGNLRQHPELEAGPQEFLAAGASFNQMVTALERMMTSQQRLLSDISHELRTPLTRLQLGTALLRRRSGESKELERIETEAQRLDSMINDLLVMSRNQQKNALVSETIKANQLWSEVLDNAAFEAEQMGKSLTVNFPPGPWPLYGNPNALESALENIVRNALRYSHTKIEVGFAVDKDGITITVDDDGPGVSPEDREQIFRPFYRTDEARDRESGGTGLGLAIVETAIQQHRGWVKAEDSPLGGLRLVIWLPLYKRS

[2] = biological target: T1, NT-647-labelled CpxA-Strep …; experiment: MST; as a3, with ADP and MgCl2 (phosphatase-competent state mimicked)
[3] = biological target: T1, NT-647-labelled CpxA-Strep …; experiment: MST; as a3, CpxA-Strep nanodiscs supplemented with 500 µM ATP and 5 mM MgCl2 before mixing with CpxR
[4] = biological target: T2, phosphorylated CpxA in nanodiscs (CpxA-P-ND) (E. coli, UniProt P0AE82 1-457, phosphorylated (autophosphorylation with ATP and MgCl2); residue number not given); experiment: SPR; as a1, but CpxA-P-ND injected in the presence of 2 mM Mg2+-ATP; constants from Interaction Map analysis (peak assigned to phosphorylated CpxA)
T2 construct: As m1, phosphorylated; also called phosphorylated CpxA-P-ND; source: E. coli BL21(DE3) pLysS, purified; reconstituted into nanodiscs; phosphorylated by adding ATP and MgCl2 (2 mM Mg2+-ATP present)
T2 sequence (looked up): T1 sequence (looked up)

[5] = biological target: T3, sensor histidine kinase CpxA reconstituted in nanodiscs (CpxA-ND), as used for SPR (E. coli, UniProt P0AE82 1-457); experiment: SPR; His6-CpxR (50 nM, about 300 RU) captured on an anti-His antibody chip; CpxA-ND or empty ND injected at 25-1000 nM; HBS (10 mM HEPES pH 7.4, 150 mM NaCl), 25 °C; constants from Interaction Map analysis of the sensorgrams
T3 construct: CpxA sits in a lipid bilayer ringed by two MSP1D1 molecules whose His-tag was removed with TEV protease for SPR; one or two dimers per nanodisc; also called CpxA in nanodiscs; source: E. coli BL21(DE3) pLysS, purified from solubilised membranes; reconstituted into nanodiscs (MSP1D1, E. coli total lipid extract, beta-cyclodextrin)
T3 sequence (looked up): T1 sequence (looked up)

[6] = biological target: T1, NT-647-labelled CpxA-Strep …; experiment: MST; NT-647-labelled CpxA-Strep in nanodiscs (or labelled MSP1D1 in empty nanodiscs) constant at 150 nM; unlabelled CpxR (0.007-237.5 µM) or CpxP (0.01-367.5 µM) titrated; HEPES-buffered saline (20 mM HEPES pH 7.5, 150 mM NaCl), RT; no nucleotide

Kd [1]: 0.11 ± 0.02 µM | Kd [2]: 1.6 ± 0.3 µM | Kd [3]: 0.55 ± 0.06 µM | Kd [4]: 0.0248 µM | koff [4]: 4.38e-05 s⁻¹ | kon [4]: 1760 M⁻¹ s⁻¹ | Kd [5]: 0.236 µM | koff [5]: 0.000473 s⁻¹ | kon [5]: 2010 M⁻¹ s⁻¹ | Kd [6]: 3.7 ± 0.5 µM
B1: response regulator CpxR, His6-tagged (His6-CpxR) (natural protein, E. coli, UniProt P0AE88 1-232, looked up)
chain: MNKILLVDDDRELTSLLKELLEMEGFNVIVAHDGEQALDLLDDSIDLLLLDVMMPKKNGIDTLKALRQTHQTPVIMLTARGSELDRVLGLELGADDYLPKPFNDRELVARIRAILRRSHWSEQQQNNDNGSPTLEVDALVLNPGRQEASFDGQTLELTGTEFTLLYLLAQHLGQVVSREHLSQEVLGKRLTPFDRAIDMHISNLRRKLPDRKDGHPWFKTLRGRGYLMVSAS
notes: CpxR, response regulator of the Cpx two-component system, E. coli; not shown: His6, N-terminal, kept

Kd [6]: > 100 µM
B2: periplasmic accessory protein CpxP, His6-tagged (His6-CpxP) (natural protein, E. coli, UniProt P0AE85 22-166, looked up)
chain: AEVGSGDNWHPGEELTQRSTQSHMFDGISLTEHQRQQMRDLMQQARHEQPPVNVSELETMHRLVTAENFDENAVRAQAEKMANEQIARQVEMAKVRNQMYRLLTPEQQAVLNEKHQQRMEQLRDVTQWQKSSSLKLLSSSNSRSQ
notes: CpxP, periplasmic accessory protein of the Cpx two-component system, E. coli; The introduction says, citing other work, that CpxP acts as a homodimer
